Two molecules from paper PMC10940162 can be followed below.

Assay [1] addresses porcine brain tubulin (microtubules) (porcine). Kind of assay: microtubule-capping assay with TIRF microscopy; Taxol-, docetaxel- or GMPCPP-stabilized microtubules held on the coverslip through biotin–neutravidin; γ-TuC (GCP3–GFP) in solution; 5 µM tubulin, 50 mM KCl, MRB80, 30 °C; capped if γ-TuC stayed bound for at least 2 min.
Assay [2] has the same target.
For assay [3] the target is unchanged. This is another data set of the same source.
For assay [4] the target is unchanged. Kind of assay: in vitro reconstitution with TIRF microscopy; as a7 with 5 nM SNAP–AF647–CAMSAP3 and 200 nM chTOG–mCherry (not premixed).
Assay [5] shares this target. Kind of assay: in vitro reconstitution with TIRF microscopy; as a7 with 5 nM SNAP–AF647–CAMSAP3 and 30 nM mCherry–CLASP2 (pre-incubated with γ-TuC).
For assay [6] the target is unchanged. The assay can be described thus: in vitro reconstitution with TIRF microscopy; as a7 with 5 nM SNAP–AF647–CAMSAP3 and 30 nM mCherry–CDK5RAP2 (pre-incubated with γ-TuC).
Assay [7] has the same target. The assay can be described thus: in vitro reconstitution with TIRF microscopy; microtubules nucleated from and anchored at γ-TuC (GCP3–GFP) held by anti-GFP nanobody; 25 µM tubulin, 80 mM KCl, MRB80, 30 °C; 5 nM SNAP–AF647–CAMSAP3, 5 nM SNAP–AF647–CAMSAP1 or 40 nM mCherry–CAMSAP2; scored over 10 min.

On to “γ-tubulin-containing complexes (complete and incomplete γ-TuRC) purified using GCP3–GFP–SII (from UniProt Q96CW5 1-907; Q9BSJ2 1-902; Q9UGJ1 1-667; Q96RT8 1-1024; Q96RT7 1-1819; P23258 1-451)”, for which the capping efficiency (percent of minus ends capped by γ-TuC) in assay [1] is 30 to 60%.

B1: SNAP–AF647–CAMSAP3 (natural protein)
chain: MVEAAPAGSGPLRRTFLVPEIKSLDQYDFSRAKAAASLAWVLRAAFGGAEHVPPELWEPFYTDQYAQEHVKPPVTRLLLSAELYCRAWRQALPQLEPSPSPSALLALLARRGTVPSLPEHPVREADLKHQPILMGAHLAVIDALMVAFSFEWTKTLPGPLALSSLEHKLLFWVDTTVRRLQEKTEQEAAQRASPAAPLDGASPAQPSIRYRKDRAIARRAPCFPNVTTLQDLASGAALAATIHCYCPQLLRLEEVCLKDPMSVADSLYNLQLVQDFCASHLPRGCPLSLEDLLYVPPPLKVNLVVLLAEMYMCFEVLKPDFVQAKDLPDGHAVSPRNTETVPSQNNSGSSSPVFNFRHPLLSPGGPQSPLRGSTGSLKSSPSMSHMEALGKAWNRQLSRPLSQAVSFSTPFGLDSDVDVVMGDPVLLRSVSSDSLGPPRPVSTSSRNSAQPAPESGDLPTIEEALQIIHSAEPRLLPDGAADGSFYLHSPEGLSKPPLSPYPPEGASKPLSDRLNKAPIYISHPENPSKSSPCSTGEILKPPPPSEGSPKAVASSPAANNSEVKMTSFAERKKQLVKAEAESGLGSPTSTPVAPEALSSEMSELGARLEEKRRAIEAQKRRIEAIFAKHRQRLGKSAFLQVQPREAAGEAEEEAELGSVPGGERPAGEGQGEPSLRHKSVTFSPDLGPVPPEGLGDYNRAVSKLSAALSSLQRDMQRLTDQQQRLLAPPEAPGPAPPPAAWVIPGPATGPKAASPSPARRAPAARRSPGPGPSPTPRSPKHARPAELKLAPLTRVLTPPHDVDSLPHLRKFSPSQVPVQTRSSILLSEGTPPEEPTTKPALIEIPLASLGEPAADEEGDGSPPGAEDSLEEEASSEGEPRSGLGFFYKDEDKPEDEMAQKRASLLERQQRRVEEARRRKQWQEAEKEQKREEAARLAQEAPGLAFTTPVVASAAPVATLAPTTRAMAPAEEEVGPRRGDFTRLEYERRAQLKLMDDLDKVLRPRASGTGGPGRGGRRATRPRSGCCDDSALARSPARGLLGSRLSKVYSQSTLSLSTVANEAPNNLGVKRPTSRAPSPSGLMSPSRLPGSRERDWENGSNASSPASVPEYTGPRLYKEPSAKSNKFIIHNALSHCCLAGKVNEPQKNRILEEIEKSKANHFLILFRDSSCQFRALYTLSGETEELSRLAGYGPRTVTPAMVEGIYKYNSDRKRFTQIPAKTMSMSVDAFTIQGHLWQSKKPTTPKKGGGTPK
modifications: Alexa Fluor 647 dye on the SNAP tag
Consider B1, for which the percentage of microtubules released from γ-TuCs with SNAP–AF647–CAMSAP3 in assay [2] amounted to 15%. In addition, the γ-TuC displacement frequency (microtubules released among γ-TuC-anchored minus ends colocalizing with the CAMSAP) in assay [3] amounted to 40%. The percent of γ-TuC-nucleated microtubules with CAMSAP at the minus end in assay [4] stood at 25%; in assay [5], 35%; in assay [6] it was 3%; in assay [7], 30%.
